Laboratory results from PMC8036708.
pKd: −log10 of the molar value.

Assays:
[1] = target: adenovirus terminal protein-thioredoxin fusion protein (TP–Trx), bacterially expressed (adenovirus (serotype not given))
[2] = target: adenovirus terminal protein-thioredoxin fusion protein (TP–Trx), bacterially expressed (adenovirus (serotype not given)); assay: AlphaScreen or HTRF; 30 nM TP–Trx (or Trx tag alone) on nickel NTA donor beads, serial dilutions of GST-tagged importins or GST control on GST acceptor beads; 0.5% BSA added, dilutions in PBS, room temperature in the dark; one-phase association fit

## importin β1 (Imp β1), GST-tagged (from UniProt P70168 1-876) (natural protein)
[1]
  Nf/Cf of TP–Trx–AF594 microinjected into HeLa cells incubated with importazole (40 µM), a selective Imp β inhibitor; 1.62 with DMSO: 1.04
[2]
  pKd: 7.68
